Key:
[1] = molecular target: prefusion-stabilized RSV F strain A2 (DS-Cav1); experiment: SPR
[2] = molecular target: prefusion-stabilized RSV F strain A2 (DS-Cav1); experiment: SPR; remark: listed apart in the source

B1: 5C4 Fab (Fab, V domains shown)
VH: EVQLQQSGAELVKPGASVKLSCTASGFNIKDTFFHWVKQRPEQGLEWIGRIDPADGHTKYDPKFQGKATITADTSSNTAFLQLSSLTSVDTAVYYCATTITAVVPTPYNAMDYWGQGTSVTVSS
VL: DIVLTQSPASLAVSLGQRTTISCRASESVDSFDNSFIHWYQQKPGQPPKLLIFLASSLESGVPARFSGSGSRTDFTLTIDPVEADDAATYYCQQSNEDPFTFGSGTKLEIK
For B1, the koff [1] was 0.00454 s⁻¹ and the Kd [2] was 25.7 nM.

Source: article PMC5707411 (2017)
